Measurements taken from US6518401B2, “Tumor necrosis factor stimulated gene 6 (TSG-6) protein” (New York University, priority 1991, dated 2003).

B1: IL-1: E. coli-derived recombinant human IL-1α (protein, UniProt P01583 113-271, looked up)
Interleukin-1 alpha: SAPFSFLSNVKYNFMRIIKYEFILNDALNQSIIRANDQYLTAAALHNLDEAVKFDMGAYKSSKDDAKITVILRISKTQLYVTAQDEDQPVLLKEMPEIPKTITGSETNLLFFWETHGTKNYFTSVAHPNLFIATKQDYWVCLAGGPPSITDFQILENQA
modifications: E. coli recombinant
notes: E. coli-derived recombinant human IL-1α
B2: IαI: inter-α-inhibitor purified from human serum; the TSG-6 binding protein (protein)
chain 1: AVLPQEEEGSGGGQLVTEVTKKEDSCQLGYSAGPCMGMTSRYFYNGTSMACETFQYGGCMGNGNNFVTEKECLQTCRTVAACNLPIVRGPCRAFIQLWAFDAVKGKCVLFPYGGCQGNGNKFYSEKECREYCGVPGDGDEELLRFSN
chain 2: SLPGESEEMMEEVDQVTLYSYKVQSTITSRMATTMIQSKVVNNSPQPQNVVFDVQIPKGAFISNFSMTVDGKTFRSSIKEKTVGRALYAQARAKGKTAGLVRSSALDMENFRTEVNVLPGAKVQFELHYQEVKWRKLGSYEHRIYLQPGRLAKHLEVDVWVIEPQGLRFLHVPDTFEGHFDGVPVISKGQQKAHVSFKPTVAQQRICPNCRETAVDGELVVLYDVKREEKAGELEVFNGYFVHFFAPDNLDPIPKNILFVIDVSGSMWGVKMKQTVEAMKTILDDLRAEDHFSVIDFNQNIRTWRNDLISATKTQVADAKRYIEKIQPSGGTNINEALLRAIFILNEANNLGLLDPNSVSLIILVSDGDPTVGELKLSKIQKNVKENIQDNISLFSLGMGFDVDYDFLKRLSNENHGIAQRIYGNQDTSSQLKKFYNQVSTPLLRNVQFNYPHTSVTDVTQNNFHNYFGGSEIVVAGKFDPAKLDQIESVITATSANTQLVLETLAQMDDLQDFLSKDKHADPDFTRKLWAYLTINQLLAERSLAPTAAAKRRITRSILQMSLDHHIVTPLTSLVIENEAGDERMLADAPPQDPSCCSGALYYGSKVVPDSTPSWANPSPTPVISMLAQGSQVLESTPPPHVMRVEND
chain 3: SKSSEKRQAVDTAVDGVFIRSLKVNCKVTSRFAHYVVTSQVVNTANEAREVAFDLEIPKTAFISDFAVTADGNAFIGDIKDKVTAWKQYRKAAISGENAGLVRASGRTMEQFTIHLTVNPQSKVTFQLTYEEVLKRNHMQYEIVIKVKPKQLVHHFEIDVDIFEPQGISKLDAQASFLPKELAAQTIKKSFSGKKGHVLFRPTVSQQQSCPTCSTSLLNGHFKVTYDVSRDKICDLLVANNHFAHFFAPQNLTNMNKNVVFVIDISGSMRGQKVKQTKEALLKILGDMQPGDYFDLVLFGTRVQSWKGSLVQASEANLQAAQDFVRGFSLDEATNLNGGLLRGIEILNQVQESLPELSNHASILIMLTDGDPTEGVTDRSQILKNVRNAIRGRFPLYNLGFGHNVDFNFLEVMSMENNGRAQRIYEDHDATQQLQGFYSQVAKPLLVDVDLQYPQDAVLALTQNHHKQYYEGSEIVVAGRIADNKQSSFKADVQAHGEGQEFSITCLVDEEEMKKLLRERGHMLENHVERLWAYLTIQELLAKRMKVDREERANLSSQALQMSLDYGFVTPLTSMSIRGMADQDGLKPTIDKPSEDSPPLEMLGPRRTFVLSALQPSPTHSSSNTQRLPDRVTGVDTD

Columns and labels:
TSG-1 (IL-8) mRNA = experiment: Northern blot analysis of TSG mRNA levels in FS-4 cells; type: cell-based, human; settings: growth arrested FS-4 cells, 2 h; TNF 20 ng/ml, CHX 10 ug/ml, IFN-β 500 U/ml, IFN-γ 100 U/ml, IL-1-α 1 ng/ml, EGF 25 ng/ml, TGF-β 2 ng/ml, poly(I).poly(C) 50 ug/ml, TPA 100 ng/ml, A23187 1 uM, forskolin 10 uM, dBcAMP 100 uM, IBMX 100 uM
Procedure: (§1) The human diploid FS-4 foreskin fibroblast cell line (Vilcek, J. et al, Proc. Natl. Acad. Sci. USA 70:3909-3913 (1973)) was used at passage level 15 in all experiments. FS-4 cells were grown in Eagle minimal essential medium (E-MEM) supplemented with 6 mM HEPES, 3 mM Tricine, 50 μg/ml gentamicin, and 5% heat inactivated (56° C., 30 min) fetal bovine serum (FBS; GIBCO Laboratories, Grand Island, N.Y.). For experiments, 4×10^6 cells were seeded in 175 cm^2 Falcon flasks, incubated at 37° C., and allowed to grow to confluence over 6 days. The confluent monolayers were washed once with phosphate buffered saline and replenished with E-MEM containing […] FBS. The cultures were incubated in this medium for another 72 h at 37° C. to let the cells become quiescent and then treated with the appropriate agents, as specified herein.
(§2) Cytoplasmic RNA was fractionated on a 1% agarose gel containing formaldehyde and blotted onto Zeta-probe blotting membranes (Bio-Rad Laboratories, Richmond, Calif.). Cytoplasmic RNA was loaded at 10 μg/lane. Prehybridization and hybridization of Northern blots were performed as described (Lin, J.-X. et al, supra). Filters were probed with 32P-labeled cDNA insert from recombinant M13 clones and/or with 32P-labeled internal reference pHe7 insert. Northern blots were quantified with a laser densitometer.
(§3) The increase in mRNA levels ranged from about 3-fold (TSG-21) to over 100-fold (TSG-6 and TSG-8).
(§4) Table 3 provides a summary of a large number of experiments in which levels of mRNAs corresponding to the 8 distinct TSG cDNAs were determined in FS-4 cells exposed to various agents by Northern blot analysis. Three of the mRNAs (corresponding to TSG-8, TSG-12 and TSG-14) were inducible by the protein synthesis inhibitor, cycloheximide (CHX). […] In contrast, induction of the remaining 3 mRNAs by TNF was inhibited or reduced in the presence of CHX. Five of the mRNAs were inducible by IFN-β, but only two of these responded to […]. Simultaneous treatment with IFN-β reduced inducibility of TSG-1 (=IL-8) mRNA by TNF, but increased the inducibility of TSG-6 and TSG-37 mRNAs. All mRNAs were inducible by IL-1 and by the doublestranded RNA poly(I)-poly(C) or the phorbol ester 12-O-tetradecanoyl phorbol 13-acetate (TPA), but the efficiency of induction by these agents varied. Epidermal growth factor (EGF) was moderately efficient in increasing TSG-21 (=collagenase) and TSG-27 (=stromelysin) mRNA levels, and weakly stimulated several other mRNAs. PDGF and transforming growth factor-β (TGF-β) were only weakly effective, as were dibutyryl cyclic AMP (dBcAMP) and the phosphodiesterase inhibitor, isobutyl methyl xanthine (IBMX).

TSG-12 mRNA = experiment: as above; type: cell-based, human; settings: growth arrested FS-4 cells, 2 h; TNF 20 ng/ml, CHX 10 ug/ml, IFN-β 500 U/ml, IFN-γ 100 U/ml, IL-1-α 1 ng/ml, EGF 25 ng/ml, TGF-β 2 ng/ml, poly(I).poly(C) 50 ug/ml, TPA 100 ng/ml, A23187 1 uM, forskolin 10 uM, dBcAMP 100 uM, IBMX 100 uM
Procedure: as §1, §2, §3, §4

TSG-14 mRNA = experiment: as above; type: cell-based, human; settings: growth arrested FS-4 cells, 2 h; TNF 20 ng/ml, CHX 10 ug/ml, IFN-β 500 U/ml, IFN-γ 100 U/ml, IL-1-α 1 ng/ml, EGF 25 ng/ml, TGF-β 2 ng/ml, poly(I).poly(C) 50 ug/ml, TPA 100 ng/ml, A23187 1 uM, forskolin 10 uM, dBcAMP 100 uM, IBMX 100 uM
Procedure: as §1, §2, §3, §4

[1] = test system: TSG-21 (Collagenase) mRNA; experiment: as above; type: cell-based, human; settings: growth arrested FS-4 cells, 16 h of treatment; TNF 20 ng/ml, CHX 10 ug/ml, IFN-β 500 U/ml, IFN-γ 100 U/ml, IL-1-α 1 ng/ml, EGF 25 ng/ml, TGF-β 2 ng/ml, poly(I).poly(C) 50 ug/ml, TPA 100 ng/ml, forskolin 10 uM, IBMX 100 uM
Procedure: as §1, §2, §3, §4

[2] = test system: TSG-27 (Stromelysin) mRNA; experiment: as above; type: cell-based, human; settings: growth arrested FS-4 cells, 16 h of treatment; TNF 20 ng/ml, CHX 10 ug/ml, IFN-β 500 U/ml, IFN-γ 100 U/ml, IL-1-α 1 ng/ml, EGF 25 ng/ml, TGF-β 2 ng/ml, poly(I).poly(C) 50 ug/ml, TPA 100 ng/ml, forskolin 10 uM, IBMX 100 uM
Procedure: as §1, §2, §3, §4

TSG-37 (MT-II) mRNA = experiment: as above; type: cell-based, human; settings: growth arrested FS-4 cells, 2 h; TNF 20 ng/ml, CHX 10 ug/ml, IFN-β 500 U/ml, IFN-γ 100 U/ml, IL-1-α 1 ng/ml, EGF 25 ng/ml, TGF-β 2 ng/ml, poly(I).poly(C) 50 ug/ml, TPA 100 ng/ml, A23187 1 uM, forskolin 10 uM, dBcAMP 100 uM, IBMX 100 uM
Procedure: as §1, §2, §3, §4

TSG-6 mRNA = experiment: as above; type: cell-based, human; settings: growth arrested FS-4 cells, 2 h; TNF 20 ng/ml, CHX 10 ug/ml, IFN-β 500 U/ml, IFN-γ 100 U/ml, IL-1-α 1 ng/ml, EGF 25 ng/ml, TGF-β 2 ng/ml, poly(I).poly(C) 50 ug/ml, TPA 100 ng/ml, A23187 1 uM, forskolin 10 uM, dBcAMP 100 uM, IBMX 100 uM
Procedure: as §1, §2, §3, §4

TSG-8 (MCAF) mRNA = experiment: as above; type: cell-based, human; settings: growth arrested FS-4 cells, 2 h; TNF 20 ng/ml, CHX 10 ug/ml, IFN-β 500 U/ml, IFN-γ 100 U/ml, IL-1-α 1 ng/ml, EGF 25 ng/ml, TGF-β 2 ng/ml, poly(I).poly(C) 50 ug/ml, TPA 100 ng/ml, A23187 1 uM, forskolin 10 uM, dBcAMP 100 uM, IBMX 100 uM
Procedure: as §1, §2, §3, §4

[3] = biological target: T1, IαI purified from human serum (Homo sapiens, UniProt P02760+P19823); experiment: TSG-6/IαI complex formation with purified proteins (SDS-PAGE, Western blot); type: binding; settings: preincubated 16 hrs. at 37° C. with chondroitinase, then mixed with the untreated partner protein
T1 construct: IαI is a complex protein in which the bikunin chain is linked to HC1 and HC2; supposed to determine the cleavage site for the C-terminal propeptide; from tissue; host or cells: human serum
Procedure: Purified recombinant TSG-6 protein (lane 1) and IαI purified from human serum (lane 2) were mixed and incubated for 2 min. (lane 3), 5 min. (lane 4), 10 min. (lane 5), 15 min. (lane 6), 30 min. (lane 7), or for 60 min. (lane 8) at 37° C. or for 60 min. at 0° C. (lane 9). The reaction mixtures were then separated by SDS-PAGE and subjected to Western blot analysis with rabbit anti-TSG-6 serum.
Four micrograms of purified IαI and 3 μg of purified TSG-6 protein were incubated separately for 16 hrs. at 37° C. in the absence or presence of 30 milliunits of chondroitin sulfate ABC lyase. […]
Analysis of TSG-6 Binding to Carrier Protein. To determine the presence of TSG-6 binding protein, samples to be analyzed were mixed with an equal volume of TSG-6-containing serum-free supernatants of TN-5 B insect cells infected with recombinant Baculovirus and incubated at 37° C. for 30-60 min. (Purified TSG-6 protein was used in some experiments, as indicated.) Thereafter, the mixtures were analyzed for the presence of the 120-kDa complex by Western blotting with purified rabbit antibody to TSG-6 as described earlier (Wisniewski et al, J. Immunol. 151:6593-6601 (1993)). […]
Rapid Complex Formation between Recombinant TSG-6 Protein and IαI Purified from Human Serum at 37° C. The 120kDa TSG-6/IαI complex formed readily when purified TSG-6 protein and purified IαI were incubated together at 37° C. but not at 0° C. […]

T1 sequence (P98066 18-277 partner, one chain of several): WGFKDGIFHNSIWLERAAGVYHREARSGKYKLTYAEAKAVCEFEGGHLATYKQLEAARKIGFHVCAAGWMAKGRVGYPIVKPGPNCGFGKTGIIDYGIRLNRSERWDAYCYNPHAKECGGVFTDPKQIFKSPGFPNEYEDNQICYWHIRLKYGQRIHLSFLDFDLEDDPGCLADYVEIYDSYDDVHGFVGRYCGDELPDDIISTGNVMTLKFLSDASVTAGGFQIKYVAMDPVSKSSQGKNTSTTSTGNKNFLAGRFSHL

| Molecule | Relative Increase in mRNA Level TSG-1 (IL-8) (TSG-1 (IL-8) mRNA) | Relative Increase in mRNA Level TSG-12 (TSG-12 mRNA) | Relative Increase in mRNA Level TSG-14 (TSG-14 mRNA) | Relative Increase in mRNA Level TSG-21 (Collagenase) [1] | Relative Increase in mRNA Level TSG-27 (Stromelysin) [2] | Relative Increase in mRNA Level TSG-37 (MT-II) (TSG-37 (MT-II) mRNA) | Relative Increase in mRNA Level TSG-6 (TSG-6 mRNA) | Relative Increase in mRNA Level TSG-8 (MCAF) (TSG-8 (MCAF) mRNA) | ability to form the TSG-6/IαI complex after pretreatment of the protein with chondroitin sulfate ABC lyase [3] |
| --- | --- | --- | --- | --- | --- | --- | --- | --- | --- |
| B1 | + | ++++ | ++++ | ++ | ++ | ++ | + | ++ |  |
| B2 |  |  |  |  |  |  |  |  | no longer able to form a complex |
